Measured values: publication PMC6123713, “Adenylate kinase potentiates the capsular polysaccharide by modulating Cps2D in Streptococcus pneumoniae D39” (Experimental & Molecular Medicine, 2018)

How the values were obtained:
[1] = molecular target: T1, His6-Cps2D wild-type (Streptococcus pneumoniae type 2 (D39), UniProt Q9ZII6 1-226); test: BLI; Blitz system; His6-Cps2D protein (1 μM) immobilised on Ni-NTA sensors; GST-SpAdK 2.5-50 μM; buffer D (250 mM NaCl, 50 mM Tris-HCl, pH 7.5, 1 mM DTT) with 5 mM Mg-ATP; GST and sensor background subtracted; steady-state analysis; apparent Kd; settings: both partners purified
T1 construct: autophosphorylating tyrosine kinase Cps2D of Streptococcus pneumoniae type 2 (D39), approximately 226 amino acids; also called Cps2D WT; pCPS03; source: recombinant, purified to homogeneity; plasmid pCPS03 (E. coli plasmid pHis-parallel 2); cloning and purification in the Supplementary Information
T1 sequence: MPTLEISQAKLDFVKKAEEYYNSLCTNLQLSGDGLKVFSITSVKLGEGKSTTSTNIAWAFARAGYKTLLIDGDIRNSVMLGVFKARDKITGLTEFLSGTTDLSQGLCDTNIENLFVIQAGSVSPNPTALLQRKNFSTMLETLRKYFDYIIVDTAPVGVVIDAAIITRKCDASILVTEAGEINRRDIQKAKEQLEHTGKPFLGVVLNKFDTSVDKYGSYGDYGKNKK

[2] = molecular target: T2, His6-Cps2D 3Y3E (Y215E/Y218E/Y221E) (Streptococcus pneumoniae type 2 (D39), UniProt Q9ZII6 1-226, Y215E | Y218E | Y221E); test: as above; settings: both partners purified
T2 construct: tyrosine kinase Cps2D of Streptococcus pneumoniae type 2 (D39), triple phosphomimetic mutant of the C-terminal tyrosine cluster; also called pCPS04; source: recombinant, purified to homogeneity; plasmid pCPS04 (E. coli plasmid pHis-parallel 2); cloning and purification in the Supplementary Information
T2 sequence: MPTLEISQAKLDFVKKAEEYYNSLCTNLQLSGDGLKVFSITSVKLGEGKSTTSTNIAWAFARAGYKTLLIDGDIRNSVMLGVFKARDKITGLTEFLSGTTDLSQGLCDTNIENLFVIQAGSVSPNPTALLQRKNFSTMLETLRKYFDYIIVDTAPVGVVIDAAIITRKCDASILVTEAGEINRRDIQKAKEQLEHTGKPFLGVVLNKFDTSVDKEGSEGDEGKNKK

B1: GST-SpAdK (Streptococcus pneumoniae adenylate kinase, GST-tagged) (enzyme)
chain: MNLLIMGLPGAGKGTQAAKIVEQFHVAHISTGDMFRAAMANQTEMGVLAKSYIDKGELVPDEVTNGIVKERLSQDDIKETGFLLDGYPRTIEQAHALDKTLAELGIELEGIINIEVNPDSLLERLSGRIIHRVTGETFHKVFNPPVDYKEEDYYQREDDKPETVKRRLDVNIAQGEPIIAHYRAKGLVHDIEGNQDINDVFSDIEKVLTNLK
notes: adenylate kinase of Streptococcus pneumoniae (SpAdK); also called glutathione S-transferase (GST)-SpAdK; pGST-ADK; source: recombinant, purified; plasmid pGST-ADK (E. coli plasmid pGST-parallel 2); cloning and purification in the Supplementary Information
Kd [1]: 31 ± 5 µM | Kd [2]: 40 ± 17 µM
